The record followed here is patent publication US20220289850 (published 2022).

In one test the target is C1q (human, UniProt P02745). Briefly: other, up to 30 ug/mL.
A further test addresses T1, human integrin avb8 (human).
T1 chain 1: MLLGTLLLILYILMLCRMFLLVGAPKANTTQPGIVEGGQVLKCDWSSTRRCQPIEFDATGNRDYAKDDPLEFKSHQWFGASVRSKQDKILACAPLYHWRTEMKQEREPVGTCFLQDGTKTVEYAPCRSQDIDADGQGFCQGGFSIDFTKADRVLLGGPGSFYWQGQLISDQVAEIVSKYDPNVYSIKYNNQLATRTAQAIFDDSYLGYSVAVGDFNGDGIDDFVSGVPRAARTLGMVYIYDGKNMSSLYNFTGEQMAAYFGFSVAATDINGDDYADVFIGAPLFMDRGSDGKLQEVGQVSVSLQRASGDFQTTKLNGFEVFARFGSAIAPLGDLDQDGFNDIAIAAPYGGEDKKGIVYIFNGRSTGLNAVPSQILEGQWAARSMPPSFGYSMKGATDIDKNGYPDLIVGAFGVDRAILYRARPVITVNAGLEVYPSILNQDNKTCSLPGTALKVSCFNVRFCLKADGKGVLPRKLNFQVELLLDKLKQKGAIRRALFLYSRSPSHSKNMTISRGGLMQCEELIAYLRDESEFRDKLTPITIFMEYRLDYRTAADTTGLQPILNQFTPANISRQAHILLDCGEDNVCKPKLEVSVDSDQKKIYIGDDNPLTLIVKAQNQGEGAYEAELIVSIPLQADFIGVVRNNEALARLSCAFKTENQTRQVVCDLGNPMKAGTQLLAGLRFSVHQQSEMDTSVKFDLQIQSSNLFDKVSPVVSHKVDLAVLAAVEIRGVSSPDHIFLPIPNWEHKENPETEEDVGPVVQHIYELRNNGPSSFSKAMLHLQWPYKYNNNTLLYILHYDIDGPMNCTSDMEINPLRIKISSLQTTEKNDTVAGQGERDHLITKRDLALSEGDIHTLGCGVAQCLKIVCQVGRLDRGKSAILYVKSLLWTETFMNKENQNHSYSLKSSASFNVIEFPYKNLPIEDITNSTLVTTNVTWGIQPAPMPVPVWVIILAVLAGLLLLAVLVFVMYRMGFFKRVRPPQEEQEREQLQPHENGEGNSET
T1 chain 2: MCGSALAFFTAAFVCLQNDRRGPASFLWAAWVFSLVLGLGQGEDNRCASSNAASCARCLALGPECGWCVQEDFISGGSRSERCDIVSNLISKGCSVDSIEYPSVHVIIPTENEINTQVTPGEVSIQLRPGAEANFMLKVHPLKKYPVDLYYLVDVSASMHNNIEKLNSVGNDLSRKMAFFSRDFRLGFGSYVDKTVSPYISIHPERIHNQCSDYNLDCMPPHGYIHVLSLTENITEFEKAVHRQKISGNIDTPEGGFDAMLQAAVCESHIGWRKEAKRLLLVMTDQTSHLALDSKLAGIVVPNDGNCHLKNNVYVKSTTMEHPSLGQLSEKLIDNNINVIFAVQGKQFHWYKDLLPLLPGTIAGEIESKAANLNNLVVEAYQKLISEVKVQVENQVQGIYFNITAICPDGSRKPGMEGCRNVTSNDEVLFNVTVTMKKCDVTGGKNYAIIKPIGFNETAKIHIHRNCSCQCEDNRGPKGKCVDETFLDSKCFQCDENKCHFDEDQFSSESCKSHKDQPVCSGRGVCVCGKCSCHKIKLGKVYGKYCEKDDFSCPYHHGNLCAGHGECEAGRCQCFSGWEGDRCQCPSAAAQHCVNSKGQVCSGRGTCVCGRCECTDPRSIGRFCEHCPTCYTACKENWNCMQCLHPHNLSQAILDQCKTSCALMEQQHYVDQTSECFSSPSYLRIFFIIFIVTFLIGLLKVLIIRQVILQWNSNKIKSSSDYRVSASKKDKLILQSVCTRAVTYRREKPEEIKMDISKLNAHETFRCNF
Kind of test: SPR. On the technique in general: Surface plasmon resonance follows binding to a sensor surface in real time, without labels.

Sequence of C1q (P02745 23-245, chain 1 of 3): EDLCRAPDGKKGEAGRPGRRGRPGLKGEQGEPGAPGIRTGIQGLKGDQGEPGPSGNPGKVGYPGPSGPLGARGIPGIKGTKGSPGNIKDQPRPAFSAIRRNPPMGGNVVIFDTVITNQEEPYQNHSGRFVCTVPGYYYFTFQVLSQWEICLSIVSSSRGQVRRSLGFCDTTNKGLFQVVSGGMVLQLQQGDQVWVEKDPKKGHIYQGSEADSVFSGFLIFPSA
Sequence of C1q (P02746 28-253, chain 2 of 3, further chain): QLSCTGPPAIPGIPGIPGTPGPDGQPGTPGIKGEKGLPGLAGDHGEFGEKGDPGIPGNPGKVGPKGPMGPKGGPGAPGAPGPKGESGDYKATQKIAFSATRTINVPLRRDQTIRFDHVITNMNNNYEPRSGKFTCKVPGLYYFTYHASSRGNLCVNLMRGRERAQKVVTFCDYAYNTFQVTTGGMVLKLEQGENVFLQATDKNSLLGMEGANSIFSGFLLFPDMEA
Sequence of C1q (P02747 29-245, chain 3 of 3, further chain): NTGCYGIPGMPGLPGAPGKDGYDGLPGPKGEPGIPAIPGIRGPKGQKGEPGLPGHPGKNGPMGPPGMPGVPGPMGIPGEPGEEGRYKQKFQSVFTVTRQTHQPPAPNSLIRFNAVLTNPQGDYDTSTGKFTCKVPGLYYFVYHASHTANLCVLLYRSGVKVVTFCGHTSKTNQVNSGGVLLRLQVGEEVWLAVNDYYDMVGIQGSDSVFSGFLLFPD

B1: ADWA11 2.4 IgG (antibody)
chain 1: EVQLVESGGGLVQPGGSLRLSCAASGFNIKDYYMNWVRQAPGKGLEWVGWIDPDQGNTIYEPKFQGRFTISADTSKNSAYLQMNSLRAEDTAVYYCARRLLMDYWGQGTLVTVSSASTKGPSVFPLAPSSKSTSGGTAALGCLVKDYFPEPVTVSWNSGALTSGVHTFPAVLQSSGLYSLSSVVTVPSSSLGTQTYICNVNHKPSNTKVDKKVEPKSCDKTHTCPPCPAPEAAGAPSVFLFPPKPKDTLMISRTPEVTCVVVDVSHEDPEVKFNWYVDGVEVHNAKTKPREEQYNSTYRVVSVLTVLHQDWLNGKEYKCKVSNKALPAPIEKTISKAKGQPREPQVYTLPPSREEMTKNQVSLTCLVKGFYPSDIAVEWESNGQPENNYKTTPPVLDSDGSFFLYSKLTVDKSRWQQGNVFSCSVMHEALHNHYTQKSLSLSPGK
chain 2: DIQMTQSPSSLSASVGDRVTITCRSTKSLSHFNGNTYLFWYQQKPGKAPKRLIYYMSSLASGVPSRFSGSGSGTDFTLTISSLQPEDFATYYCQQSLEYPFTFGGGTKVEIKRTVAAPSVFIFPPSDEQLKSGTASVVCLLNNFYPREAKVQWKVDNALQSGNSQESVTEQDSKDSTYSLSSTLTLSKADYEKHKVYACEVTHQGLSSPVTKSFNRGEC
B1: the binding result with C1q was “no binding”.

B2: Mouse hybridoma ADWA-11 Fab (antibody, V domains shown)
VH: EVQLQQSGAELVRPGAFVKLSCKASGFNIKDYYMNWVLQRPEQGLEWIGWIDPDNGNTIYDPKFQGKASITADTSSNTAYLQLSSLTSEDTAVYYCARRLLMDYWGQGTSVTVSS
VL: DIVMTQAAPSVPVTPGESVSISCRSTKSLLHFNGNTYLFWFLQRPGQSPQRLIYYMSNLASGVPDRFSGRGSGTDFTLRISRVEAEDVGVYYCMQSLEYPFTFGTGTKLEIK
The Kd is a measure of binding affinity in units of concentration. Consider B2, for which, in the test with human integrin avb8, the Kd came out at 536 pM. This counts as sub-nanomolar.

B3: ADWA11 VH05/VK01 (VH05-2_VK01) Fab (antibody, V domains shown)
VH: EVQLVESGGGLVQPGGSLRLSCAASGFNIKDYYMNWVRQAPGKGLEWVGWIDPDNGNTIYDPKFQGRFTISADTSKNSAYLQMNSLRAEDTAVYYCARRLLMDYWGQGTLVTVSS
VL: DIQMTQSPSSLSASVGDRVTITCRSTKSLLHFNGNTYLFWYQQKPGKAPKRLIYYMSNLASGVPSRFSGSGSGTDFTLTISSLQPEDFATYYCMQSLEYPFTFGQGTKVEIK
Take B3: the dissociation constant (Kd) with human integrin avb8 is < 100 pM.
